{
  "source": "IntAct's records for PubMed 31515488",
  "parents": {"B1": {"name": "Syntenin-1 (Homo sapiens), O00560 (parent)", "chain": "MSLYPSLEDLKVDKVIQAQTAFSANPANPAILSEASAPIPHDGNLYPRLYPELSQYMGLSLNEEEIRANVAVVSGAPLQGQLVARPSSINYMVAPVTGNDVGIRRAEIKQGIREVILCKDQDGKIGLRLKSIDNGIFVQLVQANSPASLVGLRFGDQVLQINGENCAGWSSDKAHKVLKQAFGEKITMTIRDRPFERTITMHKDSTGHVGFIFKNGKITSIVKDSSAARNGLLTEHNICEINGQNVIGLKDSQIADILSTSGTVVTITIMPAFIFEHIIKRMAPSIMKSLMDHTIPEV"}, "B2": {"name": "Mothers against decapentaplegic homolog 4 (Homo sapiens), Q13485 (parent)", "chain": "MDNMSITNTPTSNDACLSIVHSLMCHRQGGESETFAKRAIESLVKKLKEKKDELDSLITAITTNGAHPSKCVTIQRTLDGRLQVAGRKGFPHVIYARLWRWPDLHKNELKHVKYCQYAFDLKCDSVCVNPYHYERVVSPGIDLSGLTLQSNAPSSMMVKDEYVHDFEGQPSLSTEGHSIQTIQHPPSNRASTETYSTPALLAPSESNATSTANFPNIPVASTSQPASILGGSHSEGLLQIASGPQPGQQQNGFTGQPATYHHNSTTTWTGSRTAPYTPNLPHHQNGHLQHHPPMPPHPGHYWPVHNELAFQPPISNHPAPEYWCSIAYFEMDVQVGETFKVPSSCPIVTVDGYVDPSGGDRFCLGQLSNVHRTEAIERARLHIGKGVQLECKGEGDVWVRCLSDHAVFVQSYYLDREAGRAPGDAVHKIYPSAYIKVFDLRQCHRQMQQQAATAQAAAAAQAAAVAGNIPGPGSVGGIAPAISLSAAAGIGVDDLRRLCILRMSFVKGWGPDYPRQSIKETPCWIEIHLHRALQLLDEVLHTMPIADPQPLD"}},
  "data": [
    {"variants_of": "B1", "conditions": "with cryaa_human CRYAA", "values": [
      {"variant": "K124R", "effect of a mutation on the interaction": "with no effect"}
    ]},
    {"variants_of": "B1", "conditions": "with cox41_human COX4I1, P13073", "values": [
      {"variant": "K124R", "effect of a mutation on the interaction": "with no effect"}
    ]},
    {"variants_of": "B1", "conditions": "with frih_human FTH1, P02794", "values": [
      {"variant": "K124R", "effect of a mutation on the interaction": "with no effect"}
    ]},
    {"variants_of": "B2", "conditions": "with smad9_human SMAD9, O15198", "values": [
      {"variant": "C324R", "effect of a mutation on the interaction": "disrupting interaction strength"},
      {"variant": "Y353S", "effect of a mutation on the interaction": "disrupting interaction strength"},
      {"variant": "V350D", "effect of a mutation on the interaction": "disrupting interaction strength"},
      {"variant": "N13S", "effect of a mutation on the interaction": "with no effect"},
      {"variant": "L533R", "effect of a mutation on the interaction": "disrupting interaction strength"}
    ]},
    {"variants_of": "B2", "conditions": "with smad3_human SMAD3, P84022", "values": [
      {"variant": "C324R", "effect of a mutation on the interaction": "disrupting interaction strength"},
      {"variant": "D355N", "effect of a mutation on the interaction": "disrupting interaction strength"},
      {"variant": "M294V", "effect of a mutation on the interaction": "with no effect"},
      {"variant": "T174N", "effect of a mutation on the interaction": "with no effect"},
      {"variant": "Y353S", "effect of a mutation on the interaction": "disrupting interaction strength"},
      {"variant": "R76I", "effect of a mutation on the interaction": "with no effect"},
      {"variant": "V350D", "effect of a mutation on the interaction": "disrupting interaction strength"},
      {"variant": "N13S", "effect of a mutation on the interaction": "with no effect"},
      {"variant": "R189C", "effect of a mutation on the interaction": "with no effect"},
      {"variant": "L533R", "effect of a mutation on the interaction": "disrupting interaction strength"},
      {"variant": "L533F", "effect of a mutation on the interaction": "disrupting interaction strength"}
    ]},
    {"variants_of": "B2", "conditions": "with ews_human EWSR1, Q01844", "values": [
      {"variant": "D355N", "effect of a mutation on the interaction": "with no effect"},
      {"variant": "T174N", "effect of a mutation on the interaction": "with no effect"},
      {"variant": "R76I", "effect of a mutation on the interaction": "with no effect"},
      {"variant": "R189C", "effect of a mutation on the interaction": "with no effect"},
      {"variant": "L533F", "effect of a mutation on the interaction": "with no effect"}
    ]}
  ]
}
